The Kd is the free concentration of one partner at which half of the binding sites on the other are occupied at equilibrium, for simple one-to-one binding. For orientation: koff means the rate constant with which the complex falls apart. One may read the kon as the rate constant with which the complex forms. Broadly, the t½ is the time in which the quantity being followed falls by half.

The record followed here is US20240083986A1 (published 2024).

The chains are these.
T1: European Hornbeam (Car b 1 isoform 1A & 1B, MyBiosource, Cat #MBS1200018) (European Hornbeam, UniProt P38949 2-160)
T1 construct: Bought reagent
T1 sequence (looked up): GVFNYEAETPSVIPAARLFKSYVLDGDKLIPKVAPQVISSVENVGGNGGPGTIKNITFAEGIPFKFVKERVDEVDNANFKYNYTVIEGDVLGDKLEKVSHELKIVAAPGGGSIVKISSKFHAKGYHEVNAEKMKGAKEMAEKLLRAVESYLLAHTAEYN

T2: Apple (Mal d 1, MyBiosource, Cat #MBS1224919) (Apple, UniProt P43211 2-159, limits assumed)
T2 construct: Bought reagent
T2 sequence (looked up): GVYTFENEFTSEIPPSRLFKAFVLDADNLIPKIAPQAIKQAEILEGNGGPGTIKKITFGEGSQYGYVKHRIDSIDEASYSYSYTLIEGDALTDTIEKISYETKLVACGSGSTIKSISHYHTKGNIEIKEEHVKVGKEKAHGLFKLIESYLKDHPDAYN

T3: European Hornbeam (Car b 1 isoform 2, MyBiosource, Cat #MBS1043940) (European Hornbeam, UniProt P38950 2-160, limits assumed)
T3 construct: Bought reagent
T3 sequence (looked up): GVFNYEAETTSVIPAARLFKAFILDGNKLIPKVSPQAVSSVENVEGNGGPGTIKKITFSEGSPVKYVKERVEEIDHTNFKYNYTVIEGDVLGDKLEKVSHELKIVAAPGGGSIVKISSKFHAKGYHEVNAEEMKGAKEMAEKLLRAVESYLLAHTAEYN

T4: CHO produced recombinant Bet v 1 containing a S85A mutation with a C-terminal myc-myc hexahistidine tag … (Betula verrucosa (birch))
T4 chain: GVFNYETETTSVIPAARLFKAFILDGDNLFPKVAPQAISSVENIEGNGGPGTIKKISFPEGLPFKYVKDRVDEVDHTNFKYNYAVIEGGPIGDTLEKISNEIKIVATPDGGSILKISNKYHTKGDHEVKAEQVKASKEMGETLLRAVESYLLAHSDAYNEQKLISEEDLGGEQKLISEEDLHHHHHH

T5: Celery (Api g 1, MyBiosource, Cat #MBS1171376) (Celery, UniProt P49372 1-154, limits assumed)
T5 construct: Bought reagent
T5 sequence (looked up): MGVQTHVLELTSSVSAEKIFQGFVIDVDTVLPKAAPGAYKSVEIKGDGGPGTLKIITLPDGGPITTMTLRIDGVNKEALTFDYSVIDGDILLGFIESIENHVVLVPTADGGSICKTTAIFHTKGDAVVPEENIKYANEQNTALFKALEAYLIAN

T6: Alder (Aln g 1, MyBiosource, Cat #MBS1041484) (Alder, UniProt P38948 2-160, limits assumed)
T6 construct: Bought reagent
T6 sequence (looked up): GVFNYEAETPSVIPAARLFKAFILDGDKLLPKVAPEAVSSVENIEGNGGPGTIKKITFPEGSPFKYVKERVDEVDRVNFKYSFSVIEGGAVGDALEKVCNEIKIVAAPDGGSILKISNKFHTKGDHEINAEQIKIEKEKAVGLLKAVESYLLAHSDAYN

B1: H4H16943P (antibody, human IgG4, V domains shown)
VH: EVQLVESGGGLVQPGGSLRLSCTASGFMSSMYWMSWVRQAPGKGLEWVSNIKQDGTEKNYVESVKGRFTISRDNAKNSLYLQINSLRGEDTAVYYCARDLYSSSSGYYYYGLDVWGQGTTVTVSS
VL: DIVMTQSPLSLPVTPGEPASISCRSSQSLLHSNKYNYLDWYLQKPGQSPQLLIYLSSNRASGVPDRFSGSGSGTEFTLKISRVEAEDVGIYYCMQALHTPLTFGGGTKVEIK
notes: Fully human antibody with human IgG4 Fc (H4H prefix)
B2: H4H16960P (antibody, human IgG4, V domains shown)
VH: QLQLQESGPGLVRPSETLSLTCTVSGGSISSSNYWWGWIRQPPGKGLEWIGSIYYSGITYYNPSLKSRVTISADTSKDQFSLKLRSVTAADTAVYYCAKLEWLRLDFWGQGTTVTVSS
VL: DIQMTQSPSSVSASVGDRVTITCRASQGISSWLVWYQQKPGKVPKLLIYAASSLQSGVPLRFSGSGSGTDFTLTISSLQPEDFATYYCQQAKSFPLTFGQGTRLEIK
notes: as for B1
B3: H4H16950P (antibody, human IgG4, V domains shown)
VH: QVQLVQSGAEVKKPGASVKVSCKTSGYTFTNYGITWVRQAPGQGLEWMGWISAYNGNTNYAQNVQGRVTMTTDTSTSTAYMEVRSLRSDDTAVYYCARRSSMLHFQHWGQGTLVTVSS
VL: DIVMTQSPDSLAVSLGERATINCKSSQHVLYDSSNENYLAWFQQKPGQPPKLLIYWASTRESGVPDRFSGSGSGTDFTLTISSLQAEDVAVYYCQQYSSAPYTFGQGTKLEIK
notes: as for B1
B4: H4H16946P (antibody, human IgG4, V domains shown)
VH: EVQLVESGGGLVQPGGSLRLSCVASGFTFSNYDMNWVRQAPGEGLEWISYISYSDHNIYYIDSVKGRFTISRDNAKNSLYLQMNSLRAEDTAIYYCAREALASSSFDYWGQGTLVTVSS
VL: EIVMTQSPATLSVSPGERVTLSCRASQSVSGNLAWYQQKPGQAPRLLIYSASTGATGVPARFSGSGSGTEFTLTISSLQSEDFALYYCQQYNKWPRTIGQGTKVEIK
notes: as for B1
B5: H4H16992P (antibody, human IgG4 S228P, kappa, V domains shown)
VH: QVQLQESGPGLVKPSETLSLTCSVSGGSITNYFWTWIRQSPGKGLEWIGYIYYSGGTNYNPSLKSRVTISIDTSKNQFSLNMNSVTAADTAVYYCAGSYYYGVDVWGQGTTVTVSS
VL: EIVLTQSPATLSLSPGERATLSCRASQSIKSFLAWYRQKPGQAPRLLIYDASNRPTGIPARFSGSGSGTDFTLTINSLESEDFAVYFCQQRNNWPFTFGPGTKVDIKR
notes: human IgG4 Fc; also called REGN5713; MAB1
B6: H4H16967P (antibody, human IgG4, V domains shown)
VH: QVQLVESGGGVVQPGRSLRLSCAASGFTFSSYGMHWFRQAPGKGLEWVGVIWSDGSDKKYADSVKGRFTISRDNSKNTLYLLMNSLRDDDTAVYHCAREGGFLYSSSSHFDYWGQGTLVTVSS
VL: AIQMTQSPSSLSASVGDRVTITCRTSQGIRNDLGWYQQKPGKAPKLLIFAASSLQSGVPSRFSGSGSGTDFTLTISSLQPEDFAIYYCLQDYKYPFTFGGGTKVEIK
notes: as for B1

One assay addresses T1, European Hornbeam (Car b 1 isoform 1A & …). Description: SPR, mAb captured via anti-hFc, 25 C. In general terms: Surface plasmon resonance follows binding to a sensor surface in real time, without labels.
As for B1, the “100 nM Analyte Bound (RU)” value is 26 RU, the Kd stood at 380 nM, the koff came to 0.0578 s⁻¹ and the association rate constant (kon) stood at 152000 M⁻¹ s⁻¹. Moreover, the t½ is 0.2 min.
With B2, the “100 nM Analyte Bound (RU)” value was found to be 4 RU and the binding result is “no binding (tested: 100 nM)”.
With B3, the “100 nM Analyte Bound (RU)” value was -1 RU.
B4: the “100 nM Analyte Bound (RU)” value was found to be 63 RU, binding was put at a Kd of 168 nM, the koff amounted to 0.024 s⁻¹ and the kon was 143000 M⁻¹ s⁻¹. The same molecule came in with a t½ of 0.5 min.
On to B5, for which the “100 nM Analyte Bound (RU)” value is 161 RU, the Kd came to 1.2 nM and the t½ is 34 min.
For B6, the “100 nM Analyte Bound (RU)” value was -1 RU.

Another assay deals with T2, Apple (Mal d 1, MyBiosource, Cat …). Description: SPR, mAb captured via anti-hFc, 25 C.
Protocol: (§1) Equilibrium dissociation constants (KD) for different related allergens binding to purified anti-Bet v 1 monoclonal antibodies were determined using a real-time surface plasmon resonance biosensor (SPR-Biacore) on a Biacore 4000 instrument. All binding studies were performed in 10 mM HEPES, 150 mM NaCl, 3 mM EDTA, and 0.05% v/v surfactant Tween-20, pH 7.4 (HBS-ET) running buffer at 25° C. […] Binding studies were performed on the following related allergens: Alder (Aln g 1, MyBiosource, Cat #MBS1041484), Apple (Mal d 1, MyBiosource, Cat #MBS1224919), Carrot (Dau c 1.2, MyBiosource, Cat #MBS1212920), Celery (Api g 1, MyBiosource, Cat #MBS1171376), Celery (Api g 2, MyBiosource, Cat #MBS1047880), European Hornbeam (Car b 1 isoform 1A & 1B, MyBiosource, Cat #MBS1200018), European Hornbeam (Car b 1 isoform 2, MyBiosource, Cat #MBS1043940), Hazel (Cor A 1, MyBiosource, Cat #MBS5304600), and White Oak (Que a 1, MyBiosource, Cat #MBS1258822). […] Association (kₐ) and dissociation (kd) rate constants were determined by fitting the real-time binding sensorgrams to a 1:1 binding model with mass transport limitation using Scrubber 2.0c curve-fitting software. Binding dissociation equilibrium constants (KD) and dissociative half-lives (t½) were calculated from the kinetic rate constants as:
On to B1, for which the “100 nM Analyte Bound (RU)” value is -1 RU.
For B2, the “100 nM Analyte Bound (RU)” value came to 1 RU and the binding result is reported as “no binding (tested: 100 nM)”.
With B3, the “100 nM Analyte Bound (RU)” value is -1 RU.
Consider B4, for which the “100 nM Analyte Bound (RU)” value amounted to 0 RU and the binding result is listed as “no binding (tested: 100 nM)”.
The like results for B5 were, in that order, 3 RU and “no binding (tested: 100 nM)”.
Turning to B6, the “100 nM Analyte Bound (RU)” value was -2 RU.

The target in the next assay is T3, European Hornbeam (Car b 1 isoform 2, …). The assay can be described thus: SPR, mAb captured via anti-hFc, 25 C.
Protocol: as §1
Take B1: the “100 nM Analyte Bound (RU)” value worked out at 183 RU, binding was put at a Kd of 0.335 nM, the koff worked out at 0.000371 s⁻¹ and the kon was 1.11e+06 M⁻¹ s⁻¹. The t½ amounted to 31 min.
Regarding B2, the “100 nM Analyte Bound (RU)” value amounted to 1 RU and the binding result is “no binding (tested: 100 nM)”.
For the molecule B3, the “100 nM Analyte Bound (RU)” value was determined as 0 RU and the binding result was “no binding (tested: 100 nM)”.
In the case of B4, the “100 nM Analyte Bound (RU)” value was 63 RU, the dissociation constant Kd was found to be 179 nM, the koff is 0.0138 s⁻¹ and the kon came to 76900 M⁻¹ s⁻¹. The t½ stood at 0.8 min.
B5 showed a Kd of 0.617 nM.
For the molecule B6, the “100 nM Analyte Bound (RU)” value was 0 RU and the binding result is on record as “no binding (tested: 100 nM)”.

For the next assay, the target named is T4, CHO produced recombinant Bet v 1 …. Description: SPR, mAb captured via anti-hFc, 25 C.
Protocol: (§2) Equilibrium dissociation constants (KD) for natural Bet v 1 binding to purified anti-Bet v 1 monoclonal antibodies were determined using a real-time surface plasmon resonance biosensor (SPR-Biacore) on a Biacore 4000 instrument. All binding studies were performed in 10 mM HEPES, 150 mM NaCl, 3 mM EDTA, and 0.05% v/v surfactant Tween-20, pH 7.4 (HBS-ET) running buffer at 25° C. and 37° C. […] Association (kₐ) and dissociation (kd) rate constants were determined by fitting the real-time binding sensorgrams to a 1:1 binding model with mass transport limitation using Scrubber 2.0c curve-fitting software. Binding dissociation equilibrium constants (KD) and dissociative half-lives (t½) were calculated from the kinetic rate constants as:
Regarding B1, the “100 nM natural Bet v 1- MMH Bound (RU)” value is 0 RU and the binding result is “no binding (tested: 100 nM)”.
Regarding B2, the “100 nM natural Bet v 1- MMH Bound (RU)” value amounted to 64 RU, the Kd amounted to 0.789 nM, the koff is 0.000443 s⁻¹ and the on-rate (kon) came out at 562000 M⁻¹ s⁻¹. Further, the t½ came out at 26 min.
Regarding B3, the “100 nM natural Bet v 1- MMH Bound (RU)” value is 70 RU, the Kd is 2.21 nM, the koff was 0.000335 s⁻¹ and the kon came to 151000 M⁻¹ s⁻¹. The t½ turned out to be 35 min.
The like results for B4 were, in that order, 83 RU, 0.348 nM, 0.000141 s⁻¹, 405000 M⁻¹ s⁻¹ and 82 min.
With B6, the “100 nM natural Bet v 1- MMH Bound (RU)” value came out at 0 RU.

A further assay has as its target T5, Celery (Api g 1, MyBiosource, Cat …). Description: SPR, mAb captured via anti-hFc, 25 C.
Protocol: as §1
On to B1, for which the “100 nM Analyte Bound (RU)” value was 0 RU and the binding result is recorded as “no binding (tested: 100 nM)”.
As for B2, the “100 nM Analyte Bound (RU)” value came out at 0 RU and the binding result is “no binding (tested: 100 nM)”.
For the molecule B3, the “100 nM Analyte Bound (RU)” value was 0 RU and the binding result is “no binding (tested: 100 nM)”.
On to B4, for which the “100 nM Analyte Bound (RU)” value stood at 1 RU and the binding result is reported as “no binding (tested: 100 nM)”.
In the case of B5, the “100 nM Analyte Bound (RU)” value is 1 RU and the binding result is “no binding (tested: 100 nM)”.
As for B6, the “100 nM Analyte Bound (RU)” value is -1 RU.

The next assay concerns the target T6, Alder (Aln g 1, MyBiosource, Cat …). The assay can be described thus: SPR, mAb captured via anti-hFc, 25 C.
On to B1, for which the “100 nM Analyte Bound (RU)” value turned out to be 1 RU and the binding result is on record as “no binding (tested: 100 nM)”.
For the molecule B2, the “100 nM Analyte Bound (RU)” value stood at 29 RU, the Kd came to 147 nM, the koff came to 0.0332 s⁻¹ and the association rate constant (kon) was 226000 M⁻¹ s⁻¹. The molecule further yielded a t½ of 0.3 min.
Regarding B3, the “100 nM Analyte Bound (RU)” value amounted to 15 RU, the Kd worked out at 175 nM, the off-rate constant (koff) worked out at 0.016 s⁻¹ and the kon stood at 91200 M⁻¹ s⁻¹. The same molecule returned a t½ of 0.7 min.
For B4, the “100 nM Analyte Bound (RU)” value is 2 RU and the binding result is “no binding (tested: 100 nM)”.
For the molecule B5, the “100 nM Analyte Bound (RU)” value was 5 RU and the binding result is reported as “no binding (tested: 100 nM)”.
For B6, the “100 nM Analyte Bound (RU)” value was determined as 0 RU and the binding result is reported as “no binding (tested: 100 nM)”.

The target in another assay is T4, CHO produced recombinant Bet v 1 …. The assay can be described thus: SPR, mAb captured via anti-hFc, 37 C.
Protocol: as §2
For B1, the “100 nM natural Bet v 1-MHH Bound (RU)” value stood at 0 RU.
Turning to B2, the “100 nM natural Bet v 1-MHH Bound (RU)” value is 72 RU, the Kd worked out at 2.01 nM, the koff worked out at 0.00177 s⁻¹ and the kon was determined as 879000 M⁻¹ s⁻¹. The t½ came out at 6.5 min.
On to B3, for which the “100 nM natural Bet v 1-MHH Bound (RU)” value is 83 RU, the Kd turned out to be 5.81 nM, the koff came out at 0.00125 s⁻¹ and the kon turned out to be 215000 M⁻¹ s⁻¹. Moreover, the t½ was 9.2 min.
For B4, the “100 nM natural Bet v 1-MHH Bound (RU)” value was 97 RU, the dissociation constant (Kd) was found to be 0.655 nM, the koff was 0.000395 s⁻¹ and the kon turned out to be 603000 M⁻¹ s⁻¹. Further, the t½ was 29 min.
As to B6, the “100 nM natural Bet v 1-MHH Bound (RU)” value was -1 RU.
